Measurements: patent US20260224724A1, “GLYCOSYNTHASE VARIANTS FOR ANTIBODY-DRUG CONJUGATE ENGINEERING” (OBI Pharma, Inc., priority 2022, published 2026)

How the values were obtained:
Herceptin-GlcNAc-F = test: Transglycosylation of glycan-oxazoline to fucosylated Herceptin-GlcNAc-F, monitored by HPLC; format: biochemical; details: for GlcNAc(F) (unreacted acceptor) / 1N-G2S2 (hemi-glycosylated) / 2N-G2S2 (fully glycosylated, Herceptin-2N-G2S2F): NSCT-oxa, best conditions; for 1N-G2S2 (hemi-glycosylated) / 2N-G2S2 (fully glycosylated, Herceptin-2N-G2S2F) / 1N-Glycan / 2N-Glycan / GlcNAc(F): acceptor Herceptin-GlcNAc-F
Experimental: (§1) In general procedures, mAb-GlcNAc/mAb-GlucNAc-F (5 mg) was incubated with glycan-oxa with molar ratio 1:20 and 1:150 (mAb-GlcNAc:NSCT-oxa) by EndoSz-D234M (167 μg) or EndoSd-D232M (1002 μg), respectively, at 30° C. for 20 minutes in a MOPS buffer (50 mM, pH 6.7), to final volume 500 μL. There were some slight modifications according to experiment purposes and designs (see result section). HLPC was employed to monitor the transglycosylation efficiency.
(§2) The glycosynthase activity was analyzed by HPLC (Waters e2695) using 2.1×150 mm UPLC Glycoprotein Amide Column (Waters) under two different buffers (Buffer A, ddH2O/0.3% v/v HFIP (1,1,1,3,3,3-Hexafluoro-2-propanol), 0.1% v/v TFA; Buffer B, ACN, 0.3% v/v HFIP, 0.1% v/v TFA) with the gradient as Table 4.
(§3) After ensuring the baseline stability by injection water blank, the process was started by 2 μL sample injection. In the process duration (29 mins), the flow rate was 0.2 mL/min under the column temperature of 65° C. and sample tray temperature of 5° C.

Herceptin-GlcNAc = test: Transglycosylation of glycan-oxazoline to Herceptin-GlcNAc, monitored by HPLC; format: biochemical; details: for 1N-G2S2 (hemi-glycosylated) / 2N-G2S2 (fully glycosylated) / GlcNAc(F) (unreacted acceptor) / 1N-Glycan / 2N-Glycan / GlcNAc(F): acceptor Herceptin-GlcNAc; for 1N-G2S2 (hemi-glycosylated) / 2N-G2S2 (fully glycosylated) / GlcNAc(F) (unreacted acceptor): NSCT-oxa, best conditions (20:1 EndoSz-D234M, 150:1 EndoSd-D232M)
Experimental: as §1, §2, §3

B1: EndoSz-D234M: D234M glycosynthase mutant of EndoSz from Streptococcus equi subsp. Zooepidemicus Sz105, SEQ ID NO 2 (protein, listed as Streptococcus equi)
chain: MVAILAAQHDSLIRVKAEDKLVQTSPSVSAIDALHYLSENSKKEFKEELSKVEKAQPEKLKEIVSKAQQADKQAKTLAEMKVPEKIPMKPLKGPLYGGYFRTWHDKTSDPAEKDKVNSMGELPKEVDLAFVFHDWTKDYSLFWQELATKHVPTLNKQGTRVIRTIPWRFLAGGDHSGIAEDAQKYPNTPEGNKALAKAIVDEYVYKYNLDGLDVMIERDSIPKVNKEESKEGIERSIQVFEEIGKLIGPKGADKSRLFIMDSTYMADKNPLIERGAPYIDLLLVQVYGTQGEKGGFDNANHKAVDTMEERWESYSKYIRPEQYMVGFSFYEEKANSGNLWYDVNVEDDTNPNIGSEIKGTRAERYAKWQPKTGGVKGGIFSYGIDRDGVAHPKKNGPKTPDLDKIVKSDYKVSKALKKVMENDKSYELIDQKDFPDKALREAVIAQVGSRRGNLERFNGTLRLDNPDIKSLEGLNKLKKLAKLELIGLSQITKLDSSVLPENIKPTKDTLVSVLETYKNDDRKEEAKAIPQVALTISGLTGLKELNLAGFDRDSLAGIDAASLTSLEKVDLSSNKLDLAAGTENRQILDTMLATVTKHGGVSEKTFVFDHQKPTGLYPDTYGTKSLQLPVANDTIDLQAKLLFGTVTNQGTLINSEADYKAYQEQEIAGHRFVDSSYDYKAFAVTYKDYKIKVTDSTLGVTDHKDLSTSKEETYKVEFFSPINSTKPVHEAKIVVGEEKTMMVNLAEGATIIGGDADPTNAKKVFDGLLNNDTTTLSTSNKASIIFELKEPGLVKHWRFFNDSKISKADYIKEAKLEAFVGHLEDSSKVKDSLEKSTEWVTVSDYSGEAQEFSQPLNNIGAKYWRITIDNKKSQYGYVSLPELQIIGHRLPEAATVMTTMAAAEELSQQKDKFSQEQLKELEVKVAALKAALDNKMFNADTINASFADVKAYIDKLLADAAGKKTLGKATKEAQPVATDAKEKAESENPKADHHHHHH
- GlcNAc(F) (unreacted acceptor) (Herceptin-GlcNAc-F): 1.72%
- 1N-G2S2 (hemi-glycosylated) (Herceptin-GlcNAc-F): 4.00%
- 2N-G2S2 (fully glycosylated, Herceptin-2N-G2S2F) (Herceptin-GlcNAc-F): 94.29%
- 1N-Glycan (Herceptin-GlcNAc-F; glycan type G0F): 2.45%
- 2N-Glycan (Herceptin-GlcNAc-F; glycan type G0F): 97.55%
- GlcNAc(F) (Herceptin-GlcNAc-F; glycan type G0F): 0.00%
- 1N-Glycan (Herceptin-GlcNAc-F; glycan type G2F): 2.64%
- 2N-Glycan (Herceptin-GlcNAc-F; glycan type G2F): 97.14%
- GlcNAc(F) (Herceptin-GlcNAc-F; glycan type G2F): 0.21%
- 1N-Glycan (Herceptin-GlcNAc-F; glycan type M3F): 4.95%
- 2N-Glycan (Herceptin-GlcNAc-F; glycan type M3F): 94.44%
- GlcNAc(F) (Herceptin-GlcNAc-F; glycan type M3F): 0.62%
- Relative transglycosylation activity of EndoSz mutants (Herceptin-GlcNAc; EndoSz-D234M set to 100%, NSCT-oxa donor, best conditions): 100%
- 1N-G2S2 (hemi-glycosylated) (Herceptin-GlcNAc): 4.8%
- 2N-G2S2 (fully glycosylated) (Herceptin-GlcNAc): 91.85%
- GlcNAc(F) (unreacted acceptor) (Herceptin-GlcNAc): 3.35%
- 1N-Glycan (Herceptin-GlcNAc; glycan G0, 20:1): 2.58%
- 2N-Glycan (Herceptin-GlcNAc; glycan G0, 20:1): 96.50%
- GlcNAc(F) (Herceptin-GlcNAc; glycan G0, 20:1): 0.91%
- 1N-Glycan (Herceptin-GlcNAc; glycan G2, 20:1): 4.52%
- 2N-Glycan (Herceptin-GlcNAc; glycan G2, 20:1): 94.87%
- GlcNAc(F) (Herceptin-GlcNAc; glycan G2, 20:1): 0.61%
- 1N-Glycan (Herceptin-GlcNAc; glycan M3 (40eq)): 6.51%
- 2N-Glycan (Herceptin-GlcNAc; glycan M3 (40eq)): 92.37%
- GlcNAc(F) (Herceptin-GlcNAc; glycan M3 (40eq)): 1.11%

B2: EndoSd-D232M: D232M glycosynthase mutant of EndoSd from Streptococcus dysgalactiae subsp. Dysgalactiae, SEQ ID NO 1 (protein, listed as Streptococcus dysgalactiae)
chain: MGTILGTHHDSLISVKAEEKITQVSQTSTSIDDLHYLSENSKKEFKEELSKEKVPEKVKEILSKAQQANKQAQELAEMKVPDKIPMKPLNGPLYGGYFRTWHDKTSDPLEKDKVNSMGELPKEVDLAFVFHDWTKDYSLFWKELATKHVPKLNKQGTRVIRTIPWRFLAGGDNSGIAEDASKYPNTPEGNKALAKAIVDEYVYKYNLDGLDVMIEHDSIPKVNGEASDENLKRSIDVFEEIGKLIGPKGADKSRLFIMDSTYMADKNPLIERGAPYIDLLLVQVYGSQGEQGEFQNDTKSVTKTPEERWQGYSKYIRPEQYMIGFSFYEEKAGSGNLWYDINARKDEDTANGINDDITGTRAERYARWQPKTGGVKGGIFSYAIDRDGVAHQPKQIAEKDKQSVKNNRPLISEITDNIFHSNYSVSKTLKTVMLKDKAYDLIDEKDFPDKALREAVMAQVGTRKGDLERFNGTLRLDNPAIQSLEGLNKFKKLAQLDLIGLSRIIKLDQSVLPANMKPGKDPLETVLETYKKNGKEEPAIIPPVSLTVSGLTGLKELDLSGFDRETLAGIDAATLTSLEKVDISDNKLDLAPKTENRQIFDVMLSTVNNNAGISEQSIKFDNQKPAGNYPQTYGATNLQLPVRQEKIDLQHQLLFGTITNQGTLINSEADYKTYRNQKIAGRNFVDPDYPYNNFKVSHDNYTVKVTDSTLGTTTDKMLATDKEETYKVDFFSPTDKTKAVHTAKVIVGDEKTMMVNLAEGATVIKSENDENAQKVFNGIMEYNPLSFNNKSSIIFEIKDPSLAKYWRLFNDSSKDKKDYIKEAKLEVFTGQLNAEADVKTILEKPDNWVTVSTYSGEEKVFSHSLDNISAKYWRVTVDNKKDQYGYVSLPELQILGYPLPNADTIMKTVTVAKELSQQKDKFPQQLLDESTAKEAVVEASLNSKLFDTGVINTNVEALKNVVDECLAYEKNKETAFKATEDYRAAVNGVKAESVTVEEMAQLKDLIGKAAHLNSKIDAKLADREYDKDLLGLIGELTNITRTVKSFVKHHHHHH
- GlcNAc(F) (unreacted acceptor) (Herceptin-GlcNAc-F): 0%
- 1N-G2S2 (hemi-glycosylated) (Herceptin-GlcNAc-F): 3.17%
- 2N-G2S2 (fully glycosylated, Herceptin-2N-G2S2F) (Herceptin-GlcNAc-F): 94.75%
- Relative transglycosylation activity of EndoSd mutants (Herceptin-GlcNAc; EndoSd-D232M set to 100%, NSCT-oxa donor, best conditions): 100%
- 1N-G2S2 (hemi-glycosylated) (Herceptin-GlcNAc): 2.11%
- 2N-G2S2 (fully glycosylated) (Herceptin-GlcNAc): 97.88%
- GlcNAc(F) (unreacted acceptor) (Herceptin-GlcNAc): 0%
- Herceptin-2N-G2S2 generated (Herceptin-GlcNAc; molar ratio 20:1 (NSCT-oxa/antibody), final condition of EndoSz-D234M): 46.06%
